Experimental data published in article PMC8509813, “Effect of Structural Changes Induced by Deletion of ^54[sequence]^61 Sequence in αB-crystallin on Chaperone Function and Anti-Apoptotic Activity” (International Journal of Molecular Sciences, 2021).
Blank lines part the entries; values can stand above or below the binder they belong to.

How the values were obtained:
luciferase = luciferase (UniProt P08659 1-550 = luciferase); assay: cell-based or functional assay
lysozyme = lysozyme (UniProt P00698 19-147); assay: cell-based or functional assay
Chain of lysozyme (P00698 19-147): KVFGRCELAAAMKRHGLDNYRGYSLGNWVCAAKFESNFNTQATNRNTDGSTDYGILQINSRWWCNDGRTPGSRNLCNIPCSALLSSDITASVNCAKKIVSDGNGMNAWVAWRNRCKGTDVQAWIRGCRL

[1] = biological target: the molecule itself; assay: SEC-MALS; peak 2 (crystallin) of the mixtures with citrate synthase at 0 min, before incubation; TSK G5000PWXL column, MALS and quasi-elastic light scattering; homo-oligomer of ~20 kDa subunits

Chain of luciferase (P08659 whole entry): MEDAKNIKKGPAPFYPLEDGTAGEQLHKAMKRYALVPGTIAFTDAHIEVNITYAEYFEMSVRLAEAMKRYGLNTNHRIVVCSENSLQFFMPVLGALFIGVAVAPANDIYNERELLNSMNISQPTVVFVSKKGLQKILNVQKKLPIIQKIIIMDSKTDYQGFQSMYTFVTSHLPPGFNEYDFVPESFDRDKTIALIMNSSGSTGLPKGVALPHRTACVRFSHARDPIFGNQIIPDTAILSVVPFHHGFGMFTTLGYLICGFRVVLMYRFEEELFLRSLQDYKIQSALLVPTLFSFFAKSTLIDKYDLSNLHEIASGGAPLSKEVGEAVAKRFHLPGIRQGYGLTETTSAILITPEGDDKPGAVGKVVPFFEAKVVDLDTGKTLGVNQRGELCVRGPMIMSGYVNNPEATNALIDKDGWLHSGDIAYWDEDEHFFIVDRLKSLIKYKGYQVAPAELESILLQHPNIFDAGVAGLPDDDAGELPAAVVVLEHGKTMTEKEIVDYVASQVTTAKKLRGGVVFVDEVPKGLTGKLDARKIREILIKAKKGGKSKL

EC50: chaperone concentration that suppresses the aggregation of 1 µM luciferase (PBS, 37 °C, light scattering at 360 nm) by 50% (luciferase): 48 µM
EC50: chaperone concentration that suppresses the aggregation of 10 µM lysozyme (2 mM DTT, PBS, 37 °C, light scattering at 360 nm) by 50% (lysozyme): 2.8 µM
B1: wild-type αB-crystallin (natural protein, human, UniProt P02511 1-175, looked up)
chain: MDIAIHHPWIRRPFFPFHSPSRLFDQFFGEHLLESDLFPTSTSLSPFYLRPPSFLRAPSWFDTGLSEMRLEKDRFSVNLDVKHFSPEELKVKVLGDVIEVHGKHEERQDEHGFISREFHRKYRIPADVDPLTITSSLSSDGVLTVNGPRKQVSGPERTIPITREEKPAVTAAPKK
notes: αB-crystallin, human, wild type; subunit of ~20 kDa that forms a homo-oligomer; also called αB-wt; WT protein; source: E. coli BL21(DE3)pLysS, purified (ammonium sulfate precipitation, gel filtration twice)
binding result [1]: binds

EC50: chaperone concentration that suppresses the aggregation of 1 µM luciferase (PBS, 37 °C, light scattering at 360 nm) by 50% (luciferase): 9 µM
EC50: chaperone concentration that suppresses the aggregation of 10 µM lysozyme (2 mM DTT, PBS, 37 °C, light scattering at 360 nm) by 50% (lysozyme): 1.8 µM
B2: αB-crystallin with residues 54–61 deleted (natural protein, human, UniProt P02511 1-175, looked up)
chain: MDIAIHHPWIRRPFFPFHSPSRLFDQFFGEHLLESDLFPTSTSLSPFYLRPPSDTGLSEMRLEKDRFSVNLDVKHFSPEELKVKVLGDVIEVHGKHEERQDEHGFISREFHRKYRIPADVDPLTITSSLSSDGVLTVNGPRKQVSGPERTIPITREEKPAVTAAPKK
notes: No tag is mentioned; 306 kDa by MALS; also called αBΔ54–61; deletion mutant; source: E. coli BL21(DE3)pLysS, purified (ammonium sulfate precipitation, gel filtration twice)
binding result [1]: binds
